From patent US20230212319A1, “NOVEL ANTIGEN BINDING DOMAINS AND SYNTHETIC ANTIGEN RECEPTORS INCORPORATING THE SAME” (University of Southern California, priority 2020, published 2023)

B1: 22110 (protein)
chain: MALPVTALLLPLALLLHAARPQLQLQESGPGLVKPSETLSLTCTVSGDSISSGDYYWGWIRQPPGKGLEWIGHIYYSGVTYYNPSLKSRVTISVDTSRNQFSLKLSSVTAADTAVYYCTREDSSNWRSRGQGTLVTVSSGTGGGGSGGGGSGGGGSEFDIQMTQSPSSLSASVGDRVTITCKASDHINNWLAWYQQKPGQAPKLLIYGATTLETGVPSRFSGSGSGTDYTLTISSLQPEDFATYYCQQSWNTPWTFGQGTKLEIKRLEDLKNVFPPEVAVFEPSEAEISHTQKATLVCLATGFYPDHVELSWWVNGKEVHSGVCTDPQPLKEQPALNDSRYCLSSRLRVSATFWQNPRNHFRCQVQFYGLSENDEWTQDRAKPVTQIVSAEAWGRADCGFTSESYQQGVLSATILYEILLGKATLYAVLVSALVLMAMVKRKDSRGRAKRSGSGATNFSLLKQAGDVEENPGPTSMDWIWRILFLVGAATGAHSFEQVQLQQPGAELVKPGASVKMSCKASGYAFSSYWINWMKQKPGQGLEWIGQIYPGDGDTNYNGKFKGRATLTADTSSSTAYMQLSSLTSEDSAVYFCARSITTVVGCAMDYWGQGTSVTVSSTRIQNPDPAVYQLRDSKSSDKSVCLFTDFDSQTNVSQSKDSDVYITDKCVLDMRSMDFKSNSAVAWSNKSDFACANAFNNSIIPEDTFFPSPESSCDVKLVEKSFETDTNLNFQNLSVIGFRILLLKVAGFNLLMTLRLWSSRAKRSGSGVKQTLNFDLLKLAGDVESNPGPSRGHMTEYKPTVRLATRDDVPRAVRTLAAAFADYPATRHTVDPDRHIERVTELQELFLTRVGLDIGKVWVADDGAAVAVWTTPESVEAGAVFAEIGPRMAELSGSRLAAQQQMEGLLAPHRPKEPAWFLATVGVSPDHQGKGLGSAVVLPGVEAAERAGVPAFLETSAPRNLPFYERLGFTVTADVEVPEGPRTWCMTRKPGA
B2: CD8SP-BCMA-FHVH-93-G4S-CD19-MOR0028-scFv-hCD8TM-BBZ-T2A-PAC (protein)
chain: ACEVQLLESGGGLIQPGGSLRLSCAASGFTFSSHAMTWVRQAPGKGLEWVSAISGSGDYTHYADSVKGRFTISRDNSKNTVYLQMNSLRAEDSAVYYCAKDEDGGSLLGHRGQGTLVTVSSGTGGGGSGGGGSGGGGSEFINIYNAEPANPSEKNSPEFDIVMTQSPATLSLSPGERATLSCRSSKSLQNVNGNTYLYWFQQKPGQSPQLLIYRMSNLNSGVPDRFSGSGSGTEFTLTISSLEPEDFAVYYCMQHLEYPITFGAGTKLEIKGGGGSGGGGSGGGGSEVQLVESGGGLVKPGGSLKLSCAASGYTFTSYVMHWVRQAPGKGLEWIGYINPYNDGTKYNEKFQGRVTISSDKSISTAYMELSSLRSEDTAMYYCARGTYYYGTRVFDYWGQGTLVTVSSTRTTTPAPRPPTPAPTIASQPLSLRPEACRPAAGGAVHTRGLDFACDIYIWAPLAGTCGVLLLSLVITLYCKRGRKKLLYIFKQPFMRPVQTTQEEDGCSCRFPEEEEGGCELRVKFSRSADAPAYQQGQNQLYNELNLGRREEYDVLDKRRGRDPEMGGKPRRKNPQEGLYNELQKDKMAEAYSEIGMKGERRRGKGHDGLYQGLSTATKDTYDALHMQALPPRSSGSGEGRGSLLTCGDVEENPGPHMTEYKPTVRLATRDDVPRAVRTLAAAFADYPATRHTVDPDRHIERVTELQELFLTRVGLDIGKVWVADDGAAVAVWTTPESVEAGAVFAEIGPRMAELSGSRLAAQQQMEGLLAPHRPKEPAWFLATVGVSPDHQGKGLGSAVVLPGVEAAERAGVPAFLETSAPRNLPFYERLGFTVTADVEVPEGPRTWCMTRKPGA
B3: 22125 (protein)
chain: MALPVTALLLPLALLLHAARPEVQLVESGGGLVQAGGSLRLSCAASGRTFSMGWFRQAPGKEREFVAAITYSGGSPYYADSVKGRFTISRDNAKNTVYLQMNSLKPEDTAVYYCAANPTYGSDWNAENWGQGTQVTVSSGTGGGGSGGGGSGGGGSEFDIQMTQSPSSLSASVGDRVTITCKASDHINNWLAWYQQKPGQAPKLLIYGATTLETGVPSRFSGSGSGTDYTLTISSLQPEDFATYYCQQSWNTPWTFGQGTKLEIKRLEDLKNVFPPEVAVFEPSKAEIAHTQKATLVCLATGFYPDHVELSWWVNGKEVHSGVCTDPQPLKEQPALNDSRYCLSSRLRVSATFWQNPRNHFRCQVQFYGLSENDEWTQDRAKPVTQIVSAEAWGRADCGITSASYHQGVLSATILYEILLGKATLYAVLVSALVLMAMVKRKDSRGRAKRSGSGATNFSLLKQAGDVEENPGPTSATMDWIWRILFLVGAATGAHSGPQVQLQESGGGLAQAGGSLRLSCAASGRTFSMGWFRQAPGKEREFVAAITYSGGSPYYASSVRGRFTISRDNAKNTVYLQMNSLKPEDTAVYYCAANPTYGSDWNAENWGQGTQVTVSSGSGGGGSGGGGSGGGGSFEQVQLQQPGAELVKPGASVKMSCKASGYAFSSYWINWMKQKPGQGLEWIGQIYPGDGDTNYNGKFKGRATLTADTSSSTAYMQLSSLTSEDSAVYFCARSITTVVGCAMDYWGQGTSVTVSSTRIQNPDPAVYQLRDSKSSDKSVCLFTDFDSQTNVSQSKDSDVYITDKCVLDMRSMDFKSNSAVAWSNKSDFACANAFNNSIIPEDTFFPSSDVPCDVKLVEKSFETDTNLNFQNLSVIGFRILLLKVAGFNLLMTLRLWSSRAKRSGSGVKQTLNFDLLKLAGDVESNPGPSRGHMTEYKPTVRLATRDDVPRAVRTLAAAFADYPATRHTVDPDRHIERVTELQELFLTRVGLDIGKVWVADDGAAVAVWTTPESVEAGAVFAEIGPRMAELSGSRLAAQQQMEGLLAPHRPKEPAWFLATVGVSPDHQGKGLGSAVVLPGVEAAERAGVPAFLETSAPRNLPFYERLGFTVTADVEVPEGPRTWCMTRKPGA
B4: 22119 (protein)
chain: MALPVTALLLPLALLLHAARPDIQMTQSPSSLSASVGDRVTITCKASDHINNWLAWYQQKPGQAPKLLIYGATTLETGVPSRFSGSGSGTDYTLTISSLQPEDFATYYCQQSWNTPWTFGQGTKLEIKRLEADVSPKPTIFLPSIAETKLQKAGTYLCLLEKFFPDVIKIHWQEKKSNTILGSQEGNTMKTNDTYMKFSWLTVPEKSLDKEHRCIVRHENNKNGVDQEIIFPPIKTDVITMDPKDNCSKDANDTLLLQLTNTSAYYMYLLLLLKSVVYFAIITCCLLRRTAFCCNGEKSRAKRSGSGATNFSLLKQAGDVEENPGPTSATMDWIWRILFLVGAATGAHSGPQVQLQESGGGLAQAGGSLRLSCAASGRTFSMGWFRQAPGKEREFVAAITYSGGSPYYASSVRGRFTISRDNAKNTVYLQMNSLKPEDTAVYYCAANPTYGSDWNAENWGQGTQVTVSSGSGGGGSGGGGSGGGGSFEQVQLQQPGAELVKPGASVKMSCKASGYAFSSYWINWMKQKPGQGLEWIGQIYPGDGDTNYNGKFKGRATLTADTSSSTAYMQLSSLTSEDSAVYFCARSITTVVGCAMDYWGQGTSVTVSSTRPHTKPSVFVMKNGTNVACLVKEFYPKDIRINLVSSKKITEFDPAIVISPSGKYNAVKLGKYEDSNSVTCSVQHDNKTVHSTDFEVKTDSTDHVKPKETENTKQPSKSCHKPKAIVHTEKVNMMSLTVLGLRMLFAKTVAVNFLLTAKLFFLRAKRSGSGVKQTLNFDLLKLAGDVESNPGPSRGHMTEYKPTVRLATRDDVPRAVRTLAAAFADYPATRHTVDPDRHIERVTELQELFLTRVGLDIGKVWVADDGAAVAVWTTPESVEAGAVFAEIGPRMAELSGSRLAAQQQMEGLLAPHRPKEPAWFLATVGVSPDHQGKGLGSAVVLPGVEAAERAGVPAFLETSAPRNLPFYERLGFTVTADVEVPEGPRTWCMTRKPGA
B5: 22114 (protein)
chain: MALPVTALLLPLALLLHAARPDIQMTQSPSSLSASVGDRVTITCKASDHINNWLAWYQQKPGQAPKLLIYGATTLETGVPSRFSGSGSGTDYTLTISSLQPEDFATYYCQQSWNTPWTFGQGTKLEIKRLEIQNPDPAVYQLRDSKSSDKSVCLFTDFDSQTNVSQSKDSDVYITDKCVLDMRSMDFKSNSAVAWSNKSDFACANAFNNSIIPEDTFFPSSDVPCDVKLVEKSFETDTNLNFQNLSVIGFRILLLKVAGFNLLMTLRLWSSRAKRSGSGVKQTLNFDLLKLAGDVESNPGPTSATMDWIWRILFLVGAATGAHSGPQVQLQESGGGLAQAGGSLRLSCAASGRTFSMGWFRQAPGKEREFVAAITYSGGSPYYASSVRGRFTISRDNAKNTVYLQMNSLKPEDTAVYYCAANPTYGSDWNAENWGQGTQVTVSSGSGGGGSGGGGSGGGGSFEQVQLQQPGAELVKPGASVKMSCKASGYAFSSYWINWMKQKPGQGLEWIGQIYPGDGDTNYNGKFKGRATLTADTSSSTAYMQLSSLTSEDSAVYFCARSITTVVGCAMDYWGQGTSVTVSSTREDLKNVFPPEVAVFEPSKAEIAHTQKATLVCLATGFYPDHVELSWWVNGKEVHSGVCTDPQPLKEQPALNDSRYCLSSRLRVSATFWQNPRNHFRCQVQFYGLSENDEWTQDRAKPVTQIVSAEAWGRADCGITSASYHQGVLSATILYEILLGKATLYAVLVSALVLMAMVKRKDSRGRAKRSGSGATNFSLLKQAGDVEENPGPSRGHMTEYKPTVRLATRDDVPRAVRTLAAAFADYPATRHTVDPDRHIERVTELQELFLTRVGLDIGKVWVADDGAAVAVWTTPESVEAGAVFAEIGPRMAELSGSRLAAQQQMEGLLAPHRPKEPAWFLATVGVSPDHQGKGLGSAVVLPGVEAAERAGVPAFLETSAPRNLPFYERLGFTVTADVEVPEGPRTWCMTRKPGA

Legend:
Type in all cases: cell-based
RAJI cells = assay: JNG assay, co-culture with RAJI cells; settings: co-culture with Raji; for NFAT-GFP ASSAY: Raji: JNG cells expressing construct
In short: (§1)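 Jurkat-NFAT-GFP (JNG) cells stably expressing SAR constructs via lentiviral transduction and puromycin/blasticidin selection were cocultured with target cells at E:T ~1:2 for ~4–18 h. NFAT-driven GFP was measured by FACS versus parental JNG cells; scores +/- to 5+ denote ~5–50% GFP-positive cells.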

RAJI-CD19-KO cells = assay: JNG assay, co-culture with RAJI-CD19-KO cells; settings: co-culture with Raji-CD19-KO
In short: as §1

RS;411 = assay: JNG assay, co-culture with RS;411 cells; settings: co-culture with RS411
In short: as §1

| Molecule | NFAT-GFP ASSAY: Raji (RAJI cells) | NFAT-GFP ASSAY: Raji-CD19-KO (RAJI-CD19-KO cells) | NFAT-GFP ASSAY: RS411 (RS;411) | NFAT-GFP ASSAY (JNG): GFP induction, Raji (RAJI cells) | NFAT-GFP ASSAY (JNG): GFP induction, Raji-CD19-KO (RAJI-CD19-KO cells) | NFAT-GFP ASSAY (JNG): GFP induction, RS411 (RS;411) |
| --- | --- | --- | --- | --- | --- | --- |
| B1 | 5+ (refer to approximately 5%, 10%, 20%, 30%, 40% and 50% GFP positive cells) | 4+ (refer to approximately 5%, 10%, 20%, 30%, 40% and 50% GFP positive cells) | 4+ (refer to approximately 5%, 10%, 20%, 30%, 40% and 50% GFP positive cells) | – | – | – |
| B2 | – | – | – | 4+ (refer to approximately 5%, 10%, 20%, 30%, 40% and 50% GFP positive cells) | 3+ (refer to approximately 5%, 10%, 20%, 30%, 40% and 50% GFP positive cells) | 5+ (refer to approximately 5%, 10%, 20%, 30%, 40% and 50% GFP positive cells) |
| B3 | 4+ (refer to approximately 5%, 10%, 20%, 30%, 40% and 50% GFP positive cells) | 5+ (refer to approximately 5%, 10%, 20%, 30%, 40% and 50% GFP positive cells) | +/- (refer to approximately 5%, 10%, 20%, 30%, 40% and 50% GFP positive cells) | – | – | – |
| B4 | 4+ (refer to approximately 5%, 10%, 20%, 30%, 40% and 50% GFP positive cells) | 3+ (refer to approximately 5%, 10%, 20%, 30%, 40% and 50% GFP positive cells) | 3+ (refer to approximately 5%, 10%, 20%, 30%, 40% and 50% GFP positive cells) | – | – | – |
| B5 | – | 5+ (refer to approximately 5%, 10%, 20%, 30%, 40% and 50% GFP positive cells) | 5+ (refer to approximately 5%, 10%, 20%, 30%, 40% and 50% GFP positive cells) | – | – | – |
